In the supplement of paper PMC10126150:
± gives the standard deviation of the averaged measurements.

Test system: ATP
Experiment: switch fluorescence ratio, 500 uM ATP over buffer (Cy3 cluster intensity, sum of 5 cycles each) (fold (ratio)); higher = stronger signal-on switching upon ATP binding; sequences stand for … in TCGTCGGCAGCGTCAGATGTGTATAAGAGACAGTTTTTTTTTTTTTTTTTTTTTTTTT…TC
Conditions: aptamer strand: ATP DNA aptamer (quencher-CACCTGGGGGAGTATTGCGGAGGAAGG + anchor), 100 nM annealed; ATP concentration: 500 uM
Method in brief: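 Switching-strand clusters labelled with Cy3 on a modified Illumina MiSeq flow-cell were annealed to 100 nM quencher-labelled ATP aptamer, imaged in selection buffer, and re-imaged after 15 min with 500 uM ATP at 22 °C. This was done over five cycles with NaOH stripping and re-annealing in between. The fluorescence ratio is summed target-cycle over summed buffer-cycle Cy3 intensity per cluster, averaged per switch-domain sequence, excluding clusters outside 100-1000 RFU.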
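Also: ATP exposure 15 min at 22 °C before imaging.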

Row | Sequence | switch fluorescence ratio
1 | CCTGGGGTGT | 1.34 ± 0.28
2 | CCTGGTACTG | 1.05 ± 0.015
3 | CCTGTAAGCT | 1.3 ± 0.077
4 | CCTGTAATTG | 1.03 ± 0.031
5 | CCTGTACGGA | 1.004 ± 0.0067
6 | CCTGTGTGAC | 1.344 ± 0.013
7 | CCTGTTTGAG | 1.04 ± 0.11
8 | CCTTACCTTG | 1.04 ± 0.041
9 | CCTTATTTTG | 1.05 ± 0.065
10 | CCTTCAGAGG | 1.12 ± 0.033
11 | CCTTCCGGGG | 2.07 ± 0.23
12 | CCTTCTCGTC | 1.34 ± 0.096
13 | CCTTGATCTG | 1.06 ± 0.02
14 | CCTTGCCCTT | 1.03 ± 0.014
15 | CCTTGGAACG | 1.03 ± 0.011
16 | CCTTGGCGCG | 0.995 ± 0.035
17 | CCTTGGCTTT | 1.53 ± 0.11
18 | CCTTTAGATG | 1.03 ± 0.04
19 | CCTTTAGGGG | 0.997 ± 0.037
20 | CCTTTATGGC | 0.947 ± 0.029
21 | CCTTTATTTA | 0.986 ± 0.026
22 | CCTTTGGAAT | 1.16 ± 0.031
23 | CCTTTTGGGC | 0.97636 ± 3.3e-05
24 | CCTTTTGTTA | 0.989 ± 0.02
25 | CCTTTTTGGT | 1.016 ± 0.01
26 | CCTTTTTTGG | 1.02 ± 0.021

Row | Sequence | switch fluorescence ratio
27 | CCTTTTTTTG | 1.01 ± 0.024
28 | CGAAAAAAAA | 0.948 ± 0.062
29 | CGAAAAAAGA | 1.05 ± 0.12
30 | CGAAAAATAG | 0.985 ± 0.043
31 | CGAAAACGGT | 0.999 ± 0.048
32 | CGAAAACGTG | 0.976 ± 0.012
33 | CGAAAGATGA | 0.982 ± 0.019
34 | CGAAAGTAGC | 1.01 ± 0.013
35 | CGAAATCATC | 1.063 ± 0.0053
36 | CGAAATCGTG | 0.9964 ± 0.0047
37 | CGAAATGGGT | 1.03 ± 0.025
38 | CGAACAGCGC | 1.01 ± 0.019
39 | CGAACCTTGG | 0.998 ± 0.019
40 | CGAAGACGTA | 1.05 ± 0.06
41 | CGAAGATTTG | 1 ± 0.015
42 | CGAAGCAGGA | 2.4 ± 0.097
43 | CGAAGGATCT | 1.02 ± 0.019
44 | CGAAGGCTGG | 1.0003 ± 0.00038
45 | CGAAGGGATG | 0.982 ± 0.031
46 | CGAAGGGGGG | 1.03 ± 0.087
47 | CGAAGGGTCC | 0.959 ± 0.031
48 | CGAAGGGTGA | 1.06 ± 0.02
49 | CGAAGGGTGG | 0.993 ± 0.028
50 | CGAAGGTTTA | 0.9981 ± 0.0018
51 | CGAATCAAAC | 1.52 ± 0.032
52 | CGAATCTTGT | 1.01 ± 0.016

Row | Sequence | switch fluorescence ratio
53 | CGAATCTTTT | 1.013 ± 0.0025
54 | CGAATGGAAC | 0.989 ± 0.017
55 | CGAATGGTCG | 1.041 ± 0.0095
56 | CGAATTAATT | 0.96152 ± 0.00065
57 | CGAATTACGT | 0.992 ± 0.016
58 | CGACAGGCAT | 1.63 ± 0.063
59 | CGACCACTTT | 1.04 ± 0.025
60 | CGACTAAAAG | 0.999 ± 0.042
61 | CGACTACCTT | 1.21 ± 0.016
62 | CGACTAGGTA | 1 ± 0.062
63 | CGACTGATTA | 0.991 ± 0.013
64 | CGACTTTTAT | 0.9818 ± 0.0046
65 | CGACTTTTGT | 0.967 ± 0.013
66 | CGAGAAGAGA | 1.01 ± 0.013
67 | CGAGAAGGTG | 1.24 ± 0.33
68 | CGAGACAGGG | 1 ± 0.036
69 | CGAGAGGGGA | 1.03 ± 0.02
70 | CGAGATATGT | 1.002 ± 0.0038
71 | CGAGATGGGT | 0.974 ± 0.028
72 | CGAGATGTTA | 0.993 ± 0.015
73 | CGAGCCGAGA | 1.003 ± 0.0095
74 | CGAGCGTAGG | 1.01 ± 0.043
75 | CGAGCTTTAG | 1.024 ± 0.0033
76 | CGAGGAGGGC | 0.974 ± 0.019
77 | CGAGGCAGCT | 1.16 ± 0.15
78 | CGAGGCCTGT | 1.02 ± 0.022

Row | Sequence | switch fluorescence ratio
79 | CGAGGGCAGG | 1.08 ± 0.06
80 | CGAGGGCATG | 1.07 ± 0.045
81 | CGAGGGGAAC | 2.81 ± 2.5
82 | CGAGGGGATA | 1.04 ± 0.051
83 | CGAGGGGCTG | 1.03 ± 0.013
84 | CGAGGGTAAG | 1 ± 0.0022
85 | CGAGTAAAGA | 1.03 ± 0.028
86 | CGAGTAACGC | 1.03 ± 0.015
87 | CGAGTACGGT | 0.979 ± 0.028
88 | CGAGTAGGGG | 1.01 ± 0.025
89 | CGAGTATGAA | 0.989 ± 0.06
90 | CGAGTCAGTT | 0.992 ± 0.029
91 | CGAGTCCAAG | 1.01 ± 0.026
92 | CGAGTTAAGC | 0.965 ± 0.02
93 | CGAGTTGGCT | 1 ± 0.032
94 | CGAGTTGTTG | 1.014 ± 0.0072
95 | CGAGTTGTTT | 1 ± 0.03
96 | CGATAAGAAG | 1.01 ± 0.017
97 | CGATAAGCGG | 1.02 ± 0.035
98 | CGATACCGTG | 1.007 ± 0.0044
99 | CGATACGATT | 1.06 ± 0.076
100 | CGATAGTATA | 1.007 ± 0.0082
101 | CGATATGTTC | 1.01 ± 0.018
102 | CGATCCGGGC | 1.05 ± 0.043
103 | CGATCCTTTT | 1.05 ± 0.029
104 | CGATCGGGAT | 1.12 ± 0.13

Row | Sequence | switch fluorescence ratio
105 | CGATCTTACG | 0.9935 ± 0.0069
106 | CGATCTTGGA | 0.94 ± 0.065
107 | CGATGAATTC | 1.07 ± 0.048
108 | CGATGAATTG | 0.981 ± 0.023
109 | CGATGAGGGG | 0.967 ± 0.03
110 | CGATGAGTAA | 1 ± 0.029
111 | CGATGCAGTT | 1.05 ± 0.041
112 | CGATGCGAAG | 1.02 ± 0.035
113 | CGATGGATGG | 1.01 ± 0.037
114 | CGATGGCGGG | 1.02 ± 0.071
115 | CGATGGGGAC | 1.14 ± 0.019
116 | CGATGGGGTA | 1.01 ± 0.044
117 | CGATGGTGTT | 1.01 ± 0.035
118 | CGATGTAGGC | 1.05 ± 0.088
119 | CGATGTCGTA | 1.03 ± 0.034
120 | CGATGTCTCT | 0.973 ± 0.047
121 | CGATGTTTTT | 0.957 ± 0.029
122 | CGATTATTTC | 0.983 ± 0.0096
123 | CGATTCGCAG | 1.25 ± 0.096
124 | CGATTCTTGG | 0.99932 ± 5.1e-05
125 | CGATTGCATG | 1.05 ± 0.017
126 | CGATTGGGGG | 1.01 ± 0.018
127 | CGATTTATGT | 0.9925 ± 0.0057
128 | CGATTTCTCT | 0.973 ± 0.04
129 | CGATTTTCAT | 0.988 ± 0.013
130 | CGATTTTGGC | 0.962 ± 0.049

Row | Sequence | switch fluorescence ratio
131 | CGATTTTGGT | 0.9633 ± 0.0038
132 | CGATTTTTTG | 1 ± 0.019
133 | CGCAAATCAA | 1.38 ± 0.073
134 | CGCAATTGAG | 3.38 ± 0.17
135 | CGCAATTGTT | 2.49 ± 0.55
136 | CGCACGGGTC | 1.11 ± 0.038
137 | CGCAGAGCAA | 2.538 ± 0.0049
138 | CGCAGGCACG | 1.07 ± 0.052
139 | CGCAGTCTGT | 1.12 ± 0.012
140 | CGCATCAAGT | 1.01 ± 0.031
141 | CGCATCCTTG | 1.03 ± 0.027
142 | CGCCCCAGTG | 3.02 ± 1.8
143 | CGCCCCTGGG | 1.13 ± 0.18
144 | CGCCCTTGGC | 1.07 ± 0.036
145 | CGCCGAGATT | 1.08 ± 0.058
146 | CGCCGATATA | 1.12 ± 0.063
147 | CGCCGCTGGG | 1.993 ± 0.0075
148 | CGCCGGCGGG | 0.978 ± 0.034
149 | CGCCGGGGGC | 1.03 ± 0.014
150 | CGCCGGGTGC | 2.75 ± 0.43
151 | CGCCGTGTCG | 0.927 ± 0.049
152 | CGCCTAAGGG | 0.993 ± 0.037
153 | CGCCTCAGGG | 1.14 ± 0.018
